Test results reported in patent JP2018150260A (dated 2018).

Biological target: T1, myc3 タグ融合 PB1 サブユニット(1aa-81aa), expressed in 293T cells (influenza virus H1N1, UniProt P03431 1-81)
T1 construct: range 1-81
Assay: Western blot of 293T lysate (denatured protein)

T1 sequence (P03431 1-81): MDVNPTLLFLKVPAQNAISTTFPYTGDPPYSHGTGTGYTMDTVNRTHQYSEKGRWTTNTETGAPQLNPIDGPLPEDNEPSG

B1: PA 11-9.4モノクローナル抗体 (antibody, V domains shown)
VH: AEFVKPGASVKLSCIASGFNIKDTYMYWVKQRPEQGLEWIGRIDPANGNTKYDPKFQGKATITTDTSSNTAYLQVSSLTSEDTAVYYCAYRYDYYFDYWGQGTTLTVSS
VL: not shown
notes: also called PA 11-9.4 抗体
binding result: no binding
